This is an account of results in patent US10729634B2, “Sex hormone-binding globulin for use as a medicament” (FUNDACIÓ HOSPITAL UNIVERSITARI VALL D'HEBRON—INSTITUT DE …, priority 2013, dated 2020).

Assay [1] has as its system HepG2 cells. Briefly: SHBG over-expression (pCMV-SHBG) in stably transfected HepG2 cells. The note with it: SHBG over-expressed (pCMV-SHBG) vs pCMV control. Format: cell-based, human. The source says:
In order to elucidate a possible mechanism of action of the SHBG, HepG2 cells (catalog no. HB-8065; ATCC) maintained in DMEM supplemented with 10% FBS and antibiotics) were stably transfected with a vector expressing SHBG (pCMV-SHBG). The vector pCMV-SHBG and the control (pCMV-empty) were the ones used and mentioned in several publications, being the first in Bocchinfuso W P et al. “Expression and differential glycosylation of human sex hormone-binding globulin by mammalian cell lines”, Mol Endocrinol-1991, Vol. No. 5(11)., pp. 1723-1729.
From all panels in FIG. 20 it can be deduced that SHBG regulates hepatocyte lipid content by modulating ACC levels in HepG2 cells. (a) SHBG mRNA levels were determined in relation to 18S RNA in pCMV and pCMV-SHBG stably transfected HepG2 cells (FIG. 20 a). SHBG protein accumulation in the medium was measured using an ELISA in pCMV and pCMV-SHBG stably transfected HepG2 cells (FIG. 20 b). ACC mRNA levels were determined in relation to 18S mRNA in pCMV and pCMV-SHBG stably transfected HepG2 cells (FIG. 20 c). SHBG mRNA levels were determined in relation to 18S RNA in shControl and shSHBG stably transfected HepG2 cells (FIG. 20 d). SHBG protein accumulation in the medium was measured using an ELISA in shControl and shSHBG stably transfected HepG2 cells (FIG. 20 e). […]

Assay [2] relates to HepG2 hepatoblastoma cells. Kind of assay: Lipolysis assay (glycerol release) in HepG2 cells. In kind it is cell-based, human. The note with it: SHBG 2.5 nM, 10 nM and 50 nM, 16h incubation, vs vehicle control. The protocol:
Cell culture experiments. Cell culture reagents were from Life Technologies Inc (Invitrogen SA). HepG2 hepatoblastoma cells (catalog no. HB-8065; ATCC) were maintained in DMEM supplemented with 10% foetal bovine serum (FBS) and antibiotics. For experiments, HepG2 cells were cultured to 60%-80% confluence, cells were washed and incubated with Lipolysis Assay Buffer containing vehicle (control—C), Isoproterenol (positive control—ISO, 3 μM) or SHBG at different final cell culture concentrations (2.5 nM, 10 nM and 50 nM). SHBG was from native human protein purified from healthy human serums (it included the amino acid sequence SEQ ID NO: 1). After 16h incubation, media was collected and glycerol concentration was assessed using a Glycerol Detection Kit (Zenbio).
The data are depicted in FIG. 1, wherein the bars indicate the levels of glycerol (Gly) for each assayed sample. Glycerol is a direct measure of the lipolysis level, since is the product obtained when triglycerides are decomposed chemically or enzymatically to glycerol and fatty acids.

Assay [3] deals with human mature adipocytes from obese subjects. Briefly: Lipolysis assay (glycerol release) in human mature adipocytes. Format: cell-based. The note with it: SHBG 10 nM and 30 nM, 16h incubation, vs control buffer. The protocol:
A similar in vitro experiment as in Example 1 was performed but using human mature adipocytes from obese subjects instead of the HepG2 cells.
The cells were maintained in DMEM supplemented with 10% foetal bovine serum (FBS) and antibiotics, cultured to confluence, washed and incubated with Lipolysis Assay Buffer containing vehicle (control—C), Isoproterenol (positive control—ISO, 3 μM) or SHBG at different final cell culture concentrations (10 nM and 30 nM). SHBG was from native human protein purified from healthy human serums (it included the amino acid sequence SEQ ID NO: 1). After 16h incubation, media was collected and glycerol concentration was assessed using a Glycerol Detection Kit (Zenbio).

In assay [4] the test system is human SHBG transgenic mice (shbg). Kind of assay: High fructose diet in human SHBG transgenic mice vs wild-type. Format: in vivo. To be noted: high fructose diet (76% fructose) for 8 weeks, shbg vs WT mice. The source says:
For this experiment there were used C57BL/6 mice (WT, controls) and human SHBG transgenic mice (shbg) but not obese.
SHBG transgenic mice were obtained as disclosed above and according to Jänne et al, “Human Sex-Hormone-Binding Globulin Gen Expression in Transgenic Mice”, Molecular Endocrinology—1998, Vol. No. 12 (1), pp: 123-136 (supra).
Wild-type (WT) mice and shbg mice were fed with a high fructose diet. (76% fructose) for 8 weeks. Afterwards, they were sacrificed and liver biopsies were analyzed to see total triglyceride (TG) accumulation in both animal types.
Total triglyceride detection was measured using a triglyceride assay kit (Cat. #K622-100 BioVision) following the manufacturer's instructions.
As in Example 3.4 and following the same protocol, lipogenesis was studied by determining the mRNA and protein levels of acetyl-CoA carboxylase (ACC) and fatty acid synthase (FAS). Data from this analysis are illustrated in FIG. 18, panels (C) and (D).

B1: SHBG: native human protein purified from healthy human serums (included SEQ ID NO: 1); in mice and HepG2 expressed from human shbg transgene/vector (protein, listed as Homo sapiens)
chain: MESRGPLATSRLLLLLLLLLLRHTRQGWALRPVLPTQSAHDPPAVHLSNGPGQEPIAVMTFDLTKITKTSSSFEVRTWDPEGVIFYGDTNPKDDWFMLGLRDGRPEIQLHNHWAQLTVGAGPRLDDGRWHQVEVKMEGDSVLLEVDGEEVLRLRQVSGPLTSKRHPIMRIALGGLLFPASNLRLPLVPALDGCLRRDSWLDKQAEISASAPTSLRSCDVESNPGIFLPPGTQAEFNLRDIPQPHAEPWAFSLDLGLKQAAGSGHLLALGTPENPSWLSLHLQDQKVVLSSGSGPGLDLPLVLGLPLQLKLSMSRVVLSQGSKMKALALPPLGLAPLLNLWAKPQGRLFLGALPGEDSSTSFCLNGLWAQGQRLDVDQALNRSHEIWTHSCPQSPGNGTDASH
For the molecule B1, in assay [1], the ACC expression entry is recorded as “the expression of ACC is reduced” and the “total TG content” value is listed as “the total TG is reduced”. Besides, the “lipolysis (glycerol concentration in medium)” value in assay [2] is “increased the lipolysis in HepG2 cells (in a dose-dependent manner)”. The “final glycerol concentration (lipolysis)” value in assay [3] is given as “greater than the observed in the non-treated mature adipocytes”. Further, in assay [4], the fatty liver disease entry was “Protects Against Fatty Liver Disease” and the “triglyceride amount in liver” value was “higher in WT mice than in the transgenic ones (shbg)”.
